# Tests used:
# [1] = molecular target: Human IL-10Rβ extracellular domain (20-220), biotinylated (human) (UniProt Q08334); assay: SPR; IL-10 clone 5.1 alone, immobilized; settings: ligand
# [2] = molecular target: Human IL-10Rβ extracellular domain (20-220), biotinylated (human) (UniProt Q08334); assay: SPR; clone 5.1 immobilized, pre-bound with saturating soluble IL-10Rα; settings: ligand
# [3] = molecular target: Human IL-10Rβ on cells (Daudi, Jurkat, YT-1, THP-1 cell lines; primary human PBMC populations) (human) (UniProt Q08334); assay: cell-based or functional assay
# Sequence of Human IL-10Rβ on cells (Daudi, Jurkat, YT-1, THP-1 cell lines; primary human PBMC populations) (human) (Q08334 20-325): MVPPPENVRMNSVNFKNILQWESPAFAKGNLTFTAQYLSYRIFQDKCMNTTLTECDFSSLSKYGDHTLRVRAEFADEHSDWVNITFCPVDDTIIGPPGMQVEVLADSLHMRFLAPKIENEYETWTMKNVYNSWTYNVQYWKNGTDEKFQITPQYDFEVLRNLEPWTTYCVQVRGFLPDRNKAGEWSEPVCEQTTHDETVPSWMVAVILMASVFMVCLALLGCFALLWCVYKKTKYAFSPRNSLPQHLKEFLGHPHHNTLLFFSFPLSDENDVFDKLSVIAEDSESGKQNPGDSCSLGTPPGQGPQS
# Sequence of Human IL-10Rβ extracellular domain (20-220), biotinylated (human) (Q08334 other isoform, or with tags, fused parts or gaps): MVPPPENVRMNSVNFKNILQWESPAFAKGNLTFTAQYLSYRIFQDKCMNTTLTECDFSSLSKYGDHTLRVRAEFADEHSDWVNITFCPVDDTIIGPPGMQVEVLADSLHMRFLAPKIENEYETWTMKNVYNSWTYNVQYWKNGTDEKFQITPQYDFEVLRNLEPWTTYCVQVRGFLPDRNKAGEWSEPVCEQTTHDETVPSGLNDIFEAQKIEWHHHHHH
Substance,Kd [1] [nM],Kd [2] [nM],phospho-STAT3 activity in YT-1 cells [3] [%],"STAT3 activation relative to WT IL-10 in primary NK cells, B cells and T cells [3] [%]"
"Affinity matured IL-10 clone 5.1 (Super-10), soluble (from UniProt P22301 19-178)",70,30,–,–
IL-10 D25K variant (from UniProt P22301 19-178) (ligand),–,–,50,–
IL-10 D25A/E96A variant (10-DE) (from UniProt P22301 19-178) (ligand),–,–,50,35 to 50

# Reference: patent publication US20230192796A1
